From paper PMC10922565 (Cell chemical biology, 2023)

Assays:
Assay in all cases: flow cytometry on cells
[1] = molecular target: mouse TrkB expressed on REN cells (Mus musculus, UniProt P15209)
[2] = molecular target: mouse CD98hc expressed on REN cells (Mus musculus, UniProt P10852-2)
[3] = molecular target: mouse TfR-1 expressed on REN cells (Mus musculus, UniProt Q62351)
Sequence of mouse TfR-1 expressed on REN cells (Q62351 whole entry): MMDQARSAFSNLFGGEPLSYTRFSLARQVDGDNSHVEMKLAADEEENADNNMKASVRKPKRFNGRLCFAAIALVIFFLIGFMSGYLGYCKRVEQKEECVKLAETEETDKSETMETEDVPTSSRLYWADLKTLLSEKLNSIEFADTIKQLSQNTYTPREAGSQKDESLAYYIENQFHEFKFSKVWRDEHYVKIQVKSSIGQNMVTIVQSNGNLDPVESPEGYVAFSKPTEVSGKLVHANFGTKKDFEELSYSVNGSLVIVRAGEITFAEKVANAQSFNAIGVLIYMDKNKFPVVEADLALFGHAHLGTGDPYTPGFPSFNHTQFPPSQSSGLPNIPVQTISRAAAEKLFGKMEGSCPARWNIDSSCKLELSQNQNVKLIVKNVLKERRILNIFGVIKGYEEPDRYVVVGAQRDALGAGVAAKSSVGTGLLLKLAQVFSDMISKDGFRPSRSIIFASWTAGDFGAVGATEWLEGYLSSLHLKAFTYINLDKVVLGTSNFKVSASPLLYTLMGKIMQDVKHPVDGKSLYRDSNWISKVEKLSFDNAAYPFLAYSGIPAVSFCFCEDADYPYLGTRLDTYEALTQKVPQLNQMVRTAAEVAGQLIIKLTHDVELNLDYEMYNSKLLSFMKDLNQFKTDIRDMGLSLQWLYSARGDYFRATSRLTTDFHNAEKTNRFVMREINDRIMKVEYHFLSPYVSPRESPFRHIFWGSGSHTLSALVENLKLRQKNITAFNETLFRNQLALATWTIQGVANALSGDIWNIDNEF

Sequence of mouse TrkB expressed on REN cells (P15209 32-821): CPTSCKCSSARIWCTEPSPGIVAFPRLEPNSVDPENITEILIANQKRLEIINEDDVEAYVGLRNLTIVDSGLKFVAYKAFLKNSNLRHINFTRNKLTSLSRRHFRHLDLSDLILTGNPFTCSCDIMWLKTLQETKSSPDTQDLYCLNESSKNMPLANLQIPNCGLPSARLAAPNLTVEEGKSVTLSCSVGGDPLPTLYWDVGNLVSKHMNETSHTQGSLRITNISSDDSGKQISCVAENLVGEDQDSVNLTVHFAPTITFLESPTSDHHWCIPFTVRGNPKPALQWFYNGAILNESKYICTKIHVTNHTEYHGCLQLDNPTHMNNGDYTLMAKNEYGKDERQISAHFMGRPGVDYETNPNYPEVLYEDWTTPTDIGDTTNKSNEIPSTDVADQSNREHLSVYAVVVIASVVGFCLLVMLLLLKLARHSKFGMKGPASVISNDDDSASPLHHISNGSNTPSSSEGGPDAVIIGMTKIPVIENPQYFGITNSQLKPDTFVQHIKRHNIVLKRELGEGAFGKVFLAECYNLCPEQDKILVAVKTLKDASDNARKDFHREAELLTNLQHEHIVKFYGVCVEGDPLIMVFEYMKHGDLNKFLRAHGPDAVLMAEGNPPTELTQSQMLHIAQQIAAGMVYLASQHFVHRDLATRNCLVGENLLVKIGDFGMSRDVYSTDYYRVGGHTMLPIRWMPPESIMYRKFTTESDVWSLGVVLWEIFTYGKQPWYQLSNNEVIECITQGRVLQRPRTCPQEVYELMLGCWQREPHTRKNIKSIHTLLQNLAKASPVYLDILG

B1: 29D7 (TrkB-IgG) (antibody, V domains shown)
VH: EVQLVESGGGLVQPGGSLRLSCAASGYSFTAYFMNWVRQAPGKGLEWVARINPNNGDTFYTQKFKGRFTISRDNAKNSLYLQMNSLRAEDTAVYYCARRDYFGAMDYWGQGTLVTVSS
VL: DIQMTQSPSSLSASVGDRVTITCRASQTISNNLHWYQQKPGKAPKLLIKSASLAISGVPSRFSGSGSGTDFTLTISSLQPEDFATYYCQQSNSWPNTFGGGTKVEIK
binding result [1]: binds

B2: CD98hc IgG (antibody, V domains shown)
VH: EVQLVESGGGLVQPGRSLKLSCAASGFTFSDYYMAWVRQAPKKGLEWVASISYEGSSIYYGDSVKGRVTISRDNAKSTLYLQMNSLRSEDTATYYCARRGYYGYKPFDYWGQGVMVTVSS
VL: DIQMTQSPASLSASVGETVTIECRASEDIYNGLAWYQQKPGKSPQLLIYNIDNLHTGVPSRFSGSGSGTQYSLKINSLQSEDVASYFCQQYYTYAYTFGAGTKLELK
EC50 [2]: 1.9 nM

B3: TfR-1 IgG (clone 8D3) (antibody, V domains shown)
VH: EVQLVESGGGLVQPGNSLTLSCVASGFTFSNYGMHWIRQAPKKGLEWIAMIYYDSSKMNYADTVKGRFTISRDNSKNTLYLEMNSLRSEDTAMYYCAVPTSHYVVDVWGQGVSVTVSS
VL: DIQMTQSPASLSASLEEIVTITCQASQDIGNWLAWYQQKPGKSPQLLIYGATSLADGVPSRFSGSRSGTQFSLKISRVQVEDIGIYYCLQAYNTPWTFGGGTKLELK
EC50 [3]: 3.1 nM
